In PMC2652359:

Molecular target: human factor Xa (human)
Assay: functional titration of prothrombinase activity

Sequence of human factor Xa (human) (P00742 whole entry): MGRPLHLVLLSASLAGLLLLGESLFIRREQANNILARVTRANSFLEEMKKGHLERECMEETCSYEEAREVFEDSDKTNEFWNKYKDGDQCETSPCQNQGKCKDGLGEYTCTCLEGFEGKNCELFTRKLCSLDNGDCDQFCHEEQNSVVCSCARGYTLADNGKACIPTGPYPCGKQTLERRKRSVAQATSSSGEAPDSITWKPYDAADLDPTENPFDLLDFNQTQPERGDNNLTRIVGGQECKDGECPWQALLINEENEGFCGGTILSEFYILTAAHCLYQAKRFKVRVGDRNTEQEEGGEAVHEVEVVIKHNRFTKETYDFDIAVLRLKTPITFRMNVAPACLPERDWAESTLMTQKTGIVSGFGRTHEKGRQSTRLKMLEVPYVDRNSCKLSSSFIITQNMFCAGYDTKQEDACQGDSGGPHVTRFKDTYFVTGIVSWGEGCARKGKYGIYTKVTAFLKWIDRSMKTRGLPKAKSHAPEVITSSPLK

- Kd: 240 pM
Substance: recombinant wild-type human factor Va (from UniProt P12259 29-737; P12259 1574-2224) (natural protein)
